Data published in patent publication US20150224182A1 (UNIVERSITY OF VIRGINIA PATENT FOUNDATION, published 2015).
Non-standard residues stand in square brackets, D forms with d. No end group written: not given here. pT = C[C@@H](OP(=O)(O)O)[C@H](N)C(=O)O; pS = N[C@@H](COP(=O)(O)O)C(=O)O

B1: GIGYF2 phosphopeptide YQRsFDEVEGV (peptide)
peptide: YQR[pS]FDEVEGV
B2: SVIL phosphopeptide VPRsPKHAHSSSL (peptide)
peptide: VPR[pS]PKHAHSSSL
notes: also called Supervillin
B3: CCDC45 phosphopeptide KPPYRSHsL (peptide)
peptide: KPPYRSH[pS]L
B4: MAP7D1 phosphopeptide LPAsPRARL (peptide)
peptide: LPA[pS]PRARL
B5: LPP phosphopeptide RRSsLDAEIDSL (peptide)
peptide: RRS[pS]LDAEIDSL
B6: GTF2IRD1 phosphopeptide RPRsPGSNSKV (peptide)
peptide: RPR[pS]PGSNSKV
B7: C1orf63 phosphopeptide SPSTSRSGGsSRL (peptide)
peptide: SPSTSRSGG[pS]SRL
B8: EP300 phosphopeptide RPKLSsPAL (peptide)
peptide: RPKLS[pS]PAL
B9: HMGN1 phosphopeptide EPKRRsARL (peptide)
peptide: EPKRR[pS]ARL
B10: MEFV phosphopeptide RPRsLEVTI (peptide)
peptide: RPR[pS]LEVTI
notes: also called Pyrin
B11: ZNF219 phosphopeptide RPRsPAARL (peptide)
peptide: RPR[pS]PAARL
B12: CCDC88B phosphopeptide SPEKAGRRsSL (peptide)
peptide: SPEKAGRR[pS]SL
B13: ZFP106 phosphopeptide SPGLARKRsL (peptide)
peptide: SPGLARKR[pS]L
B14: ZC3H14 phosphopeptide KPAsPKFIVTL (peptide)
peptide: KPA[pS]PKFIVTL
B15: AKAP13 phosphopeptide RPRsAVLL (peptide)
peptide: RPR[pS]AVLL
B16: CHAF1A phosphopeptide SPRsPSTTYL (peptide)
peptide: SPR[pS]PSTTYL
B17: GRM5 phosphopeptide RPRsPSPIS (peptide)
peptide: RPR[pS]PSPIS
B18: ANKRD17 phosphopeptide SPSsPSVRRQL (peptide)
peptide: SPS[pS]PSVRRQL
B19: GIGYF2 phosphopeptide YQRsFDEVEGVF (peptide)
peptide: YQR[pS]FDEVEGVF
B20: RBM14 phosphopeptide FRRsPTKSSL (peptide)
peptide: FRR[pS]PTKSSL
B21: RREB1 phosphopeptide RPRANsGGVDL (peptide)
peptide: RPRAN[pS]GGVDL
B22: SYNPO phosphopeptide RPSRSsPGL (peptide)
peptide: RPSRS[pS]PGL
B23: RBM17 phosphopeptide RPRsPTGPsNSF (peptide)
peptide: RPR[pS]PTGP[pS]NSF
notes: also called Splicing factor 45
B24: MYL9 phosphopeptide RPQRATsNVF (peptide)
peptide: RPQRAT[pS]NVF
B25: MIIP phosphopeptide RPRPHsAPSL (peptide)
peptide: RPRPH[pS]APSL
B26: MLAEsPSVPRL (peptide)
peptide: MLAE[pS]PSVPRL
notes: From Putative uncharacterized protein, UniProt Q8WUC7
B27: RPR(sLss)PTVTL (peptide)
peptide: RPRSLSSPTVTL
modifications: also: one of Ser4, Ser6, Ser7 phosphorylated
notes: From E3 ubiquitin-protein ligase NEDD4-like, UniProt Q96PU5
B28: KVLsTEEMEL (peptide)
peptide: KVL[pS]TEEMEL
notes: From Protein FAM128B, UniProt Q6NZ67
B29: KVAsLLHQV (peptide)
peptide: KVA[pS]LLHQV
B30: DSsEEKFL (peptide)
peptide: DS[pS]EEKFL
notes: From Statherin (saliva), UniProt P02808
B31: RLAsLNAEAL (peptide)
peptide: RLA[pS]LNAEAL
notes: From Bromo adjacent homology domain-containing 1 protein, UniProt Q8TBE0
B32: VLMK(sPs)PAL (peptide)
peptide: VLMKSPSPAL
modifications: also: one of S5 or S7 phosphorylated
notes: From YTHDC2, UniProt Q9H6S0
B33: KMDsFLDMQL (peptide)
peptide: KMD[pS]FLDMQL
B34: RQIsFKAEV (peptide)
peptide: RQI[pS]FKAEV
notes: From Ubiquitin-conjugating enzyme E2 J1, UniProt Q9Y385
B35: RQAsLSISV (peptide)
peptide: RQA[pS]LSISV
notes: From Protein kinase 2D, UniProt A0JLT6
B36: KLMAPDIsL (peptide)
peptide: KLMAPDI[pS]L
B37: KLDsPRVTV (peptide)
peptide: KLD[pS]PRVTV
notes: From Protein FAM86A, UniProt Q96G04
B38: YQLsPTKLPSI (peptide)
peptide: YQL[pS]PTKLPSI
notes: From Nibrin/cell cycle regulatory protein p95, UniProt O60934
B39: GGSFGGRSSGsP (peptide)
peptide: GGSFGGRSSG[pS]P
notes: From HNRNPA3, UniProt P51991
B40: KLLQFYPsL (peptide)
peptide: KLLQFYP[pS]L
B41: GLLsPARLYAI (peptide)
peptide: GLL[pS]PARLYAI
notes: From Leucine rich PPR-motif containing protein, UniProt P42704
B42: KMYsEIDIKV (peptide)
peptide: KMY[pS]EIDIKV
notes: From 116 kDa U5 small nuclear ribonucleoprotein component, UniProt Q15029
B43: KLFsPSKEAEL (peptide)
peptide: KLF[pS]PSKEAEL
notes: From Protein cramped-like, UniProt Q96RY5
B44: ILDsGIYRI (peptide)
peptide: ILD[pS]GIYRI
notes: From Hermansky-Pudlak syndrome 5 protein, UniProt Q9UPZ3
B45: RTYsGPMNKV (peptide)
peptide: RTY[pS]GPMNKV
notes: From POF1B, UniProt Q8WVV4
B46: KAKsPAPGL (peptide)
peptide: KAK[pS]PAPGL
notes: From Nuclear receptor corepressor 2, UniProt Q9Y618
B47: KIFsGVFVKV (peptide)
peptide: KIF[pS]GVFVKV
notes: From 60S ribosomal protein L7-like 1, UniProt Q6DKI1
B48: HIVEP2 phosphopeptide RPVsPGKDI (peptide)
peptide: RPV[pS]PGKDI
B49: ATXN2L phosphopeptide SPAsPKISL (peptide)
peptide: SPA[pS]PKISL
B50: MORC2 phosphopeptide KPPsPEHQSL (peptide)
peptide: KPP[pS]PEHQSL
B51: SKI phosphopeptide RPWsPAVSA (peptide)
peptide: RPW[pS]PAVSA
B52: C17orf85 phosphopeptide RPHsPEKAF (peptide)
peptide: RPH[pS]PEKAF
B53: TLK1 phosphopeptide RPNsPSPTAL (peptide)
peptide: RPN[pS]PSPTAL
B54: C6orf64 phosphopeptide RPAsARAQPGL (peptide)
peptide: RPA[pS]ARAQPGL
B55: TPX2 phosphopeptide TPAQPQRRsL (peptide)
peptide: TPAQPQRR[pS]L
B56: MACF1 phosphopeptide KPRsPDHVL (peptide)
peptide: KPR[pS]PDHVL
B57: MAP1A phosphopeptide KPAsPARRL (peptide)
peptide: KPA[pS]PARRL
B58: PPP1CA phosphopeptide RPItPPRNSA (peptide)
peptide: RPI[pT]PPRNSA
B59: RUNX1 phosphopeptide TPIsPGRASGM (peptide)
peptide: TPI[pS]PGRASGM
B60: RCSD1 phosphopeptide SPKsPGLKA (peptide)
peptide: SPK[pS]PGLKA
B61: KLF2 phosphopeptide RPPPPPDtPP (peptide)
peptide: RPPPPPD[pT]PP
B62: KIAA0889 phosphopeptide RSGsLERKV (peptide)
peptide: RSG[pS]LERKV
notes: also called C20orf117
B63: phosphopeptide RPAtGGPGVA (no gene name in Table 7; Unknown protein) (peptide)
peptide: RPA[pT]GGPGVA
B64: phosphopeptide SPRsPGKPM (no gene name in Table 7; no database hit) (peptide)
peptide: SPR[pS]PGKPM
B65: TBC1D10C phosphopeptide KPQTRGKtF (peptide)
peptide: KPQTRGK[pT]F
notes: also called Carabin
B66: IP6K1 phosphopeptide RSEsKDRKL (peptide)
peptide: RSE[pS]KDRKL
B67: TSC22D4 phosphopeptide RPsSPALYF (peptide)
peptide: RP[pS]SPALYF
B68: RBM15 phosphopeptide RSLsPGGAA (peptide)
peptide: RSL[pS]PGGAA

Biological target: T1, HLA-B*0702 (human)
T1 construct: also called HLA-B7
Experiment: HLA-B7 eluate MS; AML1; 1 means <1 copy/cell
Excerpt: (§1) The mixture was subjected to centrifugation and the resulting supernatant was passed over protein A sepharose pre-loaded with the HLA-A2-specific antibody BB7.2 or HLA-B7-specific antibody ME1. Peptides were eluted from the purified class I MHC molecules with 10% acetic acid.

Binder | binding result
B1 | binds
B2 | binds
B3 | binds
B4 | binds
B5 | binds
B6 | binds
B7 | binds
B8 | binds
B9 | binds
B10 | binds
B11 | binds
B12 | binds
B13 | binds

Biological target: T1, HLA-B*0702
Experiment: HLA-B7 eluate MS; AML1; 2 means 1-5 copies/cell
Excerpt: as §1

Binder | binding result
B14 | binds
B15 | binds
B16 | binds
B17 | binds
B18 | binds
B19 | binds
B20 | binds
B21 | binds
B22 | binds
B23 | binds
B24 | binds
B25 | binds

Biological target: T2, HLA-A*0201 (human)
T2 construct: also called HLA-A2
Experiment: listed as presented with class I MHC on cancer cells (leukemia or transformed B cells)

Binder | binding result
B26 | binds
B27 | binds
B28 | binds
B29 | binds
B30 | binds
B31 | binds
B32 | binds
B33 | binds
B34 | binds
B35 | binds
B36 | binds
B37 | binds
B38 | binds
B39 | binds
B40 | binds
B41 | binds
B42 | binds
B43 | binds
B44 | binds
B45 | binds
B46 | binds
B47 | binds

Biological target: T1, HLA-B*0702
Experiment: HLA-B7 eluate MS; ALL1; 1 means <1 copy/cell
Excerpt: as §1

Binder | binding result
B48 | binds
B49 | binds
B50 | binds
B51 | binds
B52 | binds
B53 | binds
B54 | binds
B55 | binds
B56 | binds
B57 | binds
B58 | binds
B59 | binds
B60 | binds
B61 | binds
B62 | binds
B63 | binds
B64 | binds
B65 | binds
B66 | binds
B67 | binds
B68 | binds
